The source of these data is US20080207449A1 (CROPDESIGN N V, published 2008).

The target of test [1] is T1, HA-tagged wild-type AtE2Fb, in vitro translated (Arabidopsis, UniProt Q9FV71 1-469).
T1 construct: wild-type (whole) protein; also called HA-AtE2Fb; E2F3
The experiment in a line: co-immunoprecipitation (anti-HA and anti-c-myc) of in vitro co-translated tagged proteins, SDS-PAGE autoradiography. The procedure:
(§1) In vitro transcription and translation experiments were performed using the TNT T7-coupled wheat germ extract kit (Promega) primed with appropriate plasmids for 90 min at 30° C. For immunoprecipitation, 10 μl of the total in vitro translated extract (50 μl) was diluted at 1:5 in Nonidet P40 buffer (50 mM Tris, pH 7.4, 150 mM NaCl, 1% Nonidet P40, 1 mM phenylmethylsulfonyl fluoride, 10 μg/ml leupeptin/aprotinin/pepstatin) and incubated for 2 h at 4° C. with anti-c-myc (9E10; BabCo) or anti-HA (16B12; BabCo) antibodies. Protein-A-Sepharose (40 μl 25% (v/v)) was added and incubated for 1 h at 4° C., then the beads were washed four times with Nonidet P40 buffer. Immune complexes were eluted with 10 μl […] sodium dodecyl sulfate (SDS) sample buffer and analyzed by 10% or 15% SDS-PAGE and by autoradiography.
(§2) Similar results were obtained by two-hybrid analysis (see Table 5 of Example 12). To test whether the structural requirements for heterodimerization of the AtDPs were similar to those of their animal homologs, several deletion mutants of AtDPa and AtDPb were constructed (for a schematic illustration, see FIGS. 52 and 53), tagged with the c-myc epitope (FIGS. 54 and 55, panels A). The interactions between the mutant AtDPs and AtE2Fb were analyzed in immunoprecipitation experiments with the specific anti-HA or anti-c-myc antibodies ([…], panels B and C, respectively). […]

Test [2] concerns the target T1, HA-tagged wild-type AtE2Fb, in vitro …. The experiment in a line: co-immunoprecipitation (anti-HA) of in vitro co-translated tagged proteins, SDS-PAGE autoradiography. On the procedure:
as §1, §2

The target in test [3] is T2, empty pGBT9 (GAL4 DNA-binding domain alone) (UniProt P04386 1-147).
T2 construct: empty bait vector, control for specificity; also called pBGT9
The experiment in a line: yeast two-hybrid, growth on His- minimal medium; both vectors empty; legend: -, no interaction. On the procedure:
Different combinations between bait (pGBTE2Fa226-356, pGBTE2Fb-Rb, or pGBTE2Fb 1-127, SEQ ID NO:207) and prey constructs were transformed into yeast cells and assayed for their ability to grow on His⁻ minimal media after 3 days of incubation at 30° C. Bait plasmids co-transformed with empty pAD-GAL424 and prey plasmids co-transformed with empty pGBT9 were assessed along as controls for the specificity of the interaction.
Different combinations between AtE2Fs bait and AtDPs prey constructs were tested for growth on His minimal media. −, no interaction; +, positive interaction; NT, not tested.

For test [4], the target named is pGBTE2Fb 1-127: GAL4 DNA-binding domain fusion of AtE2Fb amino acids 1-127 (Arabidopsis). The experiment in a line: yeast two-hybrid, growth on His- minimal medium; empty prey vector control; legend: -, no interaction.
Test [5] has as its target T3, pGBTE2Fa226-356: GAL4 DNA-binding domain fusion of AtE2Fa amino acids 226-356 (Arabidopsis).
T3 construct: also called E2F5 dimerisation domain; E2Fa (=E2F5) dimerization domain
The test is described as above.

For test [6], the target named is T4, pGBT DPb 1-385: GAL4 DNA-binding domain fusion of AtDPb 1-385 (Arabidopsis thaliana).
T4 construct: its construction is not described
The description is as above.

The target in test [7] is T5, pGBTE2Fb-Rb: GAL4 DNA-binding domain fusion of AtE2Fb amino acids 1-385 (lacking the Rb-binding domain) (Arabidopsis).
T5 construct: also called E2F3 N-terminal; E2Fb (=E2F3) N-terminal domain
Described as above.

Test [8] deals with T6, pGBT DPa 1-292: GAL4 DNA-binding domain fusion of AtDPa 1-292 (Arabidopsis thaliana).
T6 construct: its construction is not described
The description is as above.

T1 sequence (Q9FV71 1-469, tags or fused parts left off): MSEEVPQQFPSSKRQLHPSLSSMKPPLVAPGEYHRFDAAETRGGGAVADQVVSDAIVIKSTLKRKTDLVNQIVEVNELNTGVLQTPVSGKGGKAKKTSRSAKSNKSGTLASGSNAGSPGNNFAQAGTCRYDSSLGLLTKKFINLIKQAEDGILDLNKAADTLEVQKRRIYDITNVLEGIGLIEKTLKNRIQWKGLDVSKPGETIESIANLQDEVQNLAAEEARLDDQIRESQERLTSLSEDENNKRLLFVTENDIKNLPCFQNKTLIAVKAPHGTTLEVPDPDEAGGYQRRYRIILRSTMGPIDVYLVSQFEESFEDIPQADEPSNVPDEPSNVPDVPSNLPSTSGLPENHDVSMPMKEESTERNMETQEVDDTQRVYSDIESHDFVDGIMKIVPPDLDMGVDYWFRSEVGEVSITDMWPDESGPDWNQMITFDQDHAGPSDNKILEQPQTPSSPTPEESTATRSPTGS

B1: c-myc-tagged AtDPa 172-292, in vitro translated (other)
chain: EQKLISEEDLEQKLISEEDLSLESLMSRNQEMVVKTQGPAEGFTLPFILLETNPHAVVEIEISEDMQLVHLDFNSTPFSVHDDAYILKLMQEQKQEQNRVSSSSSTHHQSQHSSAHSSSSSCIASGTSGPVCWNSGSIDTR
notes: also called c-myc-AtDPa 172-292
On to B1, for which the binding result in test [1] is “no binding”.

B2: c-myc-tagged AtDPa 121-213, in vitro translated (other)
chain: EQKLISEEDLEQKLISEEDLIIARDKKEIRWKGLPITCKKDVEEVKMDRNKVMSSVQKKAAFLKELREKVSSLESLMSRNQEMVVKTQGPAEGFTLPFILLETNPHAVVEIEI
notes: also called c-myc-AtDPa 121-213; predicted dimerization domain of the AtDPa
B2: in test [2], the binding result is on record as “no binding”.

B3: empty pAD-GAL424 (GAL4 transactivation domain alone) (other, UniProt P04386 768-881, looked up)
chain: ANFNQSGNIADSSLSFTFTNSSNGPNLITTQTNSQALSQPIASSNVHDNFMNNEITASKIDDGNNSKPLSPGWTDQTAYNAFGITTGMFNTTTMDDVYNYLFDDEDTPPNPKKE
notes: empty prey vector, control for specificity
In the case of B3, the binding result in test [3], in test [4], in test [5], in test [6], in test [7] and in test [8] was “no binding” each time.
